Data on one molecule can be found in PMC11239853, “Molecular and structural basis of the chromatin remodeling activity by Arabidopsis DDM1” (Nature Communications, 2024).

Assay [1] deals with T1, Arabidopsis thaliana DECREASE IN DNA …ON 1 (DDM1), full length (Arabidopsis thaliana, UniProt Q9XFH4 1-764).
T1 construct: DDM1, Snf2-type chromatin remodeling factor, Arabidopsis thaliana, full length; His6-SUMO removed with HRV 3C protease; also called AtDDM1; source: E. coli BL21(DE3) Codon(+) RIL, purified (Ni-NTA, RESOURCE Q flow-through, RESOURCE S, Superdex 200); not shown: His6, N-terminal, cleaved; SUMO, N-terminal, cleaved
T1 sequence (Q9XFH4 whole entry): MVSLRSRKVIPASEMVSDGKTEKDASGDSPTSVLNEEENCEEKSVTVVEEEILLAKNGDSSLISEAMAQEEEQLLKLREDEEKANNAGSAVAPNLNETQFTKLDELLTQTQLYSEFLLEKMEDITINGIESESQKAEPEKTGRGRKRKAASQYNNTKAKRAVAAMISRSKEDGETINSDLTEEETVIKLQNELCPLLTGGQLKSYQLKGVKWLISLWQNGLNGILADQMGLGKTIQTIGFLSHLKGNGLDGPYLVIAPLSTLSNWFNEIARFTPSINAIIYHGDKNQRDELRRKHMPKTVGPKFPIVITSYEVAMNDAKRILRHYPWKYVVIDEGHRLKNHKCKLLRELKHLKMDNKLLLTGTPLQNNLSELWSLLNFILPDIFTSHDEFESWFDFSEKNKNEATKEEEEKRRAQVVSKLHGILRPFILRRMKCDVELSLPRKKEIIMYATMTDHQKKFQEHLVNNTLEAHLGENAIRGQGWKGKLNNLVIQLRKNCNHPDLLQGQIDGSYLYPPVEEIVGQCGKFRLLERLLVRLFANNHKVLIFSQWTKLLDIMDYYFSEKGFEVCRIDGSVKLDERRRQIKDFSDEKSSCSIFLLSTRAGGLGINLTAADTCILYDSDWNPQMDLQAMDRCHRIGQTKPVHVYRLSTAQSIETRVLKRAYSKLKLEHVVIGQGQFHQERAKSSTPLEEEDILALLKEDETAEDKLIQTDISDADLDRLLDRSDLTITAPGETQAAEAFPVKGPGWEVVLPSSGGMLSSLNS
Description: cross-linking; nucleosomes (0.2 µM) with AtDDM1 (0.4 µM), 60 mM NaCl, 1 mM MgCl2, 1 mM ADP, pH 7.5, 25 °C; 1.6 mM DSS-H12/D12 (lysine-lysine), LC-MS/MS, xQuest/xProphet. Particulars: both partners purified.

Assay [2] concerns the target T2, Arabidopsis thaliana histone H3.1 (Arabidopsis thaliana, UniProt P59226 1-136).
T2 construct: His6 tag removed with thrombin (pET-15b); also called AtH3.1; source: E. coli BL21(DE3) Codon(+) RIL, purified (Ni-NTA and SP cation exchange, denaturing); in reconstituted nucleosomes; not shown: His6, N-terminal, cleaved
The assay is described as above. The settings on record: both partners purified.

B1: Arabidopsis thaliana histone H2A.W.6 (natural protein)
chain: MESTGKVKKAFGGRKPPGAPKTKSVSKSMKAGLQFPVGRITRFLKKGRYAQRLGGGAPVYMAAVLEYLAAEVLELAGNAARDNKKSRIIPRHLLLAIRNDEELGKLLSGVTIAHGGVLPNINSVLLPKKSATKPAEEKATKSPVKSPKKA
notes: His6 tag removed with thrombin (pET-15b); also called AtH2A.W; AtH2A.W.6; source: E. coli BL21(DE3) Codon(+) RIL, purified (Ni-NTA and SP cation exchange, denaturing); in reconstituted nucleosomes; not shown: His6, N-terminal, cleaved
On to B1, for which the binding result in assay [1] and in assay [2] was “binds” throughout.
